How the values were obtained:
Assay in all cases: flow cytometry, alanine-scan library in HEK-293T, with cytochalasin B
hsGLUT4 Q298A = biological target: T1, hsGLUT4 Q298A (human, UniProt P14672 1-509)
T1 sequence: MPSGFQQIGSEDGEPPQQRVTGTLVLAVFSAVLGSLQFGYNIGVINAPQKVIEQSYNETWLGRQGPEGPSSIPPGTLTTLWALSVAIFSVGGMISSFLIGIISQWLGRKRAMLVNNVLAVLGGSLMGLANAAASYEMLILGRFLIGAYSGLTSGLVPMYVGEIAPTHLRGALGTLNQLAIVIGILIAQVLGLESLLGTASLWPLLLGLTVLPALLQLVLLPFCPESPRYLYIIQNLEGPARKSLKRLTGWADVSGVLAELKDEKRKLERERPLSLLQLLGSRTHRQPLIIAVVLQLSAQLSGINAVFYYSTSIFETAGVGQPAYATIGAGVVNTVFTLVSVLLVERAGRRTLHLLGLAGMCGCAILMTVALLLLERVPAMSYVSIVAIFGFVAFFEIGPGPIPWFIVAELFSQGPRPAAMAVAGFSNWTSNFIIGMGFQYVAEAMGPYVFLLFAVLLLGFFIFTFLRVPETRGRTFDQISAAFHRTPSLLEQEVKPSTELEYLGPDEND
Description: (§1) Because of the state-dependence of the isolated MAbs, we next wished to understand the mechanism by which each MAb could recognize GLUT4 in its different conformations. The residues required for binding of each MAb were determined using shotgun mutagenesis comprehensive alanine scanning (Davidson E & Doranz B J (2014) A High-Throughput Shotgun Mutagenesis Approach to Mapping B-cell Antibody Epitopes. Immunology, which is hereby incorporated by reference in its entirety). All residues of hsGLUT4 were individually mutated to alanine, with existing alanines changed to serines. Mutations were obtained for 508 of the 509 residues of GLUT4 (excluding the initiating methionine). The entire mutation library was transfected into human HEK-293T cells in a 384-well array format (one clone per well) and assessed for immunoreactivity using high-throughput flow cytometry.
(§2) HEK-293T cells were transfected by CaPO₄ with plasmids in 6-well culture plates (Falcon) at 750,000 cells/well. At 48 hours post transfection, cells were stained with anti-V5 and anti-GLUT4 MAbs (purified scFv, 2 μg/ml) followed by biotinylated goat anti-mouse or human antibody (1:500) and streptavidin-PerCP (1:500). Fluorescence was detected using an Intellicyt high-throughput flow cytometer (HTFC; Intellicyt, Albuquerque, N. Mex.). For cell permeabilization, cells were treated with saponin at 0.1% in PBS for 20 minutes. To discriminate intact (live) and permeabilized (dead) cells without the use of detergent, propidium iodide (PI) was added to HEK-293T cells at 1 ug/ml just prior to flow cytometry. Where indicated, cytochalasin B (Sigma) was used at a final concentration of 10 uM and phloretin (Sigma) was used at a final concentration of 100 uM, each added in 10% NGS for 30 minutes prior to antibody staining as well as included with the primary antibody.

hsGLUT4 R265A = biological target: T2, hsGLUT4 R265A (human, UniProt P14672 1-509)
T2 sequence: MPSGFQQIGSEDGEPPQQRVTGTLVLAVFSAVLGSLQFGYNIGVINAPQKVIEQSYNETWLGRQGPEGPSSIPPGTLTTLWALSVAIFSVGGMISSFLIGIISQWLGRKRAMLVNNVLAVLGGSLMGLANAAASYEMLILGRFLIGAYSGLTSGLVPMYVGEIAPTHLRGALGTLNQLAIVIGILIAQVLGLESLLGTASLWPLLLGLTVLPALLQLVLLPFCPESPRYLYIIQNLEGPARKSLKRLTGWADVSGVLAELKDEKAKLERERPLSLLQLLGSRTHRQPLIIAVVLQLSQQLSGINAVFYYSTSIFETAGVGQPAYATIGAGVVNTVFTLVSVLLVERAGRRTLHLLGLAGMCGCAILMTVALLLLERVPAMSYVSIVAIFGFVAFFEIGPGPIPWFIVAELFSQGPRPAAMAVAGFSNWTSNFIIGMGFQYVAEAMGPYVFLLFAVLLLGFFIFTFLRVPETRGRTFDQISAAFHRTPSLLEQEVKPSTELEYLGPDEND
Description: as §1, §2

hsGLUT4 F307A = biological target: T3, hsGLUT4 F307A (human, UniProt P14672 1-509)
T3 sequence: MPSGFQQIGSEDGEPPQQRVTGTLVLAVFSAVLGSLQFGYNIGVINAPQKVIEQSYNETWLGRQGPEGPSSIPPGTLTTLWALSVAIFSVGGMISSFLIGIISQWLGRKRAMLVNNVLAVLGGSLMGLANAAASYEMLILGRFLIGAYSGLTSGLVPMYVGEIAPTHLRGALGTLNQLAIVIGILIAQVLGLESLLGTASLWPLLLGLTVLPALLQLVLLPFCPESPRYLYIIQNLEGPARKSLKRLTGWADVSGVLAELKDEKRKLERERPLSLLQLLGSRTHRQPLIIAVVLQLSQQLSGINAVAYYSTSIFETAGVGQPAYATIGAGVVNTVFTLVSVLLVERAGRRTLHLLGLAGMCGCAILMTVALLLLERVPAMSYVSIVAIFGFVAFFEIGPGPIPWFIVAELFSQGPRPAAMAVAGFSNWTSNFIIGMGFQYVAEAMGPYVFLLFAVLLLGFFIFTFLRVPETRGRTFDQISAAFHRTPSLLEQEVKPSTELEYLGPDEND
Description: as §1, §2

hsGLUT4 R169A = biological target: T4, hsGLUT4 R169A (human, UniProt P14672 1-509)
T4 sequence: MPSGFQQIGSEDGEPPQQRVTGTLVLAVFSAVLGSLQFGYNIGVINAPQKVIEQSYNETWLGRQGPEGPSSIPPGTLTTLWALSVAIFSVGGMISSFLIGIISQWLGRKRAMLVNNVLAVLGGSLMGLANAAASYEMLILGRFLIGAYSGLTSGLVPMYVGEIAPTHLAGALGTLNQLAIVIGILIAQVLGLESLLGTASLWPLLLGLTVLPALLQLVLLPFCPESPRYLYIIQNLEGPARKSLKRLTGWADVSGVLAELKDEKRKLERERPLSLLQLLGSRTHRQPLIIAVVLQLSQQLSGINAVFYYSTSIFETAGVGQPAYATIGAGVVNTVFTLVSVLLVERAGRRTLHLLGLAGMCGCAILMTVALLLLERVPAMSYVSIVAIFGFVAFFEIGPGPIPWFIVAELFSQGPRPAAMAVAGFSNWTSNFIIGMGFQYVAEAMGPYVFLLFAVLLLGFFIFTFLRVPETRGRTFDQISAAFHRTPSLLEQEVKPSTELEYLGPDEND
Description: as §1, §2

% of binding to wild type GLUT4 (hsGLUT4 Q298A): 107%
% of binding to wild type GLUT4 (hsGLUT4 R265A): -5%
% of binding to wild type GLUT4 (hsGLUT4 F307A): 22%
% of binding to wild type GLUT4 (hsGLUT4 R169A): 77%
B1: AB102 (Fc fusion)
scFv: ALTQPSSVSANLGGTVKITCSGGGSYGYGWYQQKSPGSAPVTVIYSNDQRPSDIPSRFSGSKSGSTATLTITGVRAEDEAIYYCGSTDSDYVGIFGAGTTLTVLGQSSRSSGGGGSSGGGGSAVTLDESGGGLQTPGGTLSLVCKASGFDFSSYATIWVRQAPGKGLEWVAGISGTGTGSSTGYAPAVKGRATISRDNGQSTVRLQLNNLRAEDTGSYFCAKSTGYGDSWIYPDSIDAWGHGTEVIVSS
notes: also called MAb AB102; not shown: Fc fragment of human IgG1, cloned in frame with the scFv

From patent publication US20210238276A1 (INTEGRAL MOLECULAR, published 2021)
